In patent US20070020757A1:

Experiments:
[1] = molecular target: receptor for Angptl2 expressed on mouse bone marrow hematopoietic stem cells (unidentified) (mouse); assay: flow cytometry; fresh mouse bone marrow cells, ~1 ug/ml Angptl2-hFc at 4 C for 30 min, anti-human IgG1-PE
[2] = molecular target: receptor for Angptl2 expressed on mouse bone marrow hematopoietic stem cells (unidentified) (mouse); assay: flow cytometry; 4 day cultured mouse bone marrow cells, ~1 ug/ml Flag-Angptl2 medium

| percent of total bone marrow cells that bind [1] [%] | percent of total cells that bind [2] [%] | Substance |
| --- | --- | --- |
| 12.8 |  | Angptl2-hFc (human Angptl2 fused to Pro 100-Lys 330 of human IgG1 Fc) (from UniProt Q9UKU9 23-493) (Fc fusion) |
|  | 5.3 | FLAG-hAngptl2 (human Angptl2 with a FLAG tag fused at the C-terminus) (from UniProt Q9UKU9 23-493) (ligand) |
